Results taken from paper PMC2892007, “The Terminal Immunoglobulin-Like Repeats of LigA and LigB of Leptospira Enhance Their Binding to Gelatin Binding Domain of Fibronectin and Host Cells” (PLoS ONE, 2010).

B1: LigAVar13 (domain or fragment)
chain: ITISLSSISKTKGSTHQFKATGKFENGAEIDLTELVTWSSSNPTVVSISNVDDERGLATALSVGSSKISVDYNSISSSIDFEVTPEILASIKTEP
modifications: biotin (in the ELISA)
B2: LigAVar7'-8 (domain or fragment)
chain: LTVSNTNAKRGLGSTLKQGTVKVTASMGGIEDSVDFTVTQATLTSIEVSPTRASIAKGMTQKFTATGIFTDHSKKNITEQVTWKSSSKALSMLNAPGEEGTGKAIAVGKHYYYCNLRKTFRENRYYRYSRNSYFN
modifications: biotin (in the ELISA)
B3: LigAVar10 (domain or fragment)
chain: LSVTAAELIEIVLDPTSSHKAKGLTENFKATGVFTDNSTKDITDQVTWKSSKTAYAKISNATGSKRVVNAISKGTSHISATLGSISSANATFQVTPAKVV
modifications: biotin (in the ELISA)
B4: LigBCen7'-12 (domain or fragment)
chain: AEITNTSGSKGITNTLTPGSSEISAALGSIKSSKVILKVTPAQLISIAVTPINPSVAKGLIRQFKATGTYTDHSVQDVTALATWSSSNPRKAMVNNVTGSVTTVATGNTNIKATIDSISGSSVLNVTPALLTSIEITPTINSITHGLTKQFKATGIFSDKSTQNLTQLVTWISSDPSKIEIENTSGKKGIATASKLGSSNIKAVYKFIQSSPIPITVTDLKLKSITISPSSSSIAKGLTQQFKAIGTFIDGSEQEITNLVTWYSSKSDVAPINNAANEKGLATALSIGSSDIYAIYNSISSNKINFNVSAATLDSIKINPVNNNIAKGLTQQYTALGVYSDSTIQDISDSVTWSSSNSSSISISNSTETKGKATALQIGNSKITATYNSISENIDITVSAATLSSISISPINTNINTTVSKQFFAVGTYSDGTKADLTSSVTWSSSNQSQAKVSNASETKGLVTGIASGNPTIIATYGSVSGNTILTVNKTDTI
modifications: biotin (in the ELISA)
B5: Histidine-tagged LigBCen2R (domain or fragment)
chain: TATYNSISENIDITVSAATLSSISISPINTNINATVSKQFFAVGTYSDGTKADLTSSVTWSSSNKSQAKVSNASKTKGLVTGIASGNSIITATYGSVSGNTILTVNKTDTI
B6: LigAVar11 (domain or fragment)
chain: FQVTPAKVVSIEVIPNNISFAKGNSYQFKATGIYTDHSEADITEQVTWSSSNPKIASVENTFGSAGLVNTTNIGSTNITAKLSDTVSGASVLNVTPALLRY
modifications: biotin (in the ELISA)

Key:
Conditions in all cases: both partners purified
[1] = target: T1, Gelatin-binding domain of human plasma fibronectin (human); assay: SPR
T1 construct: also called GBD; source: bought: Sigma-Aldrich

[2] = target: T1, Gelatin-binding domain of human plasma …; assay: SEC-MALS; mixtures of Lig protein and GBD on Superose 6, 20 mM HEPES, 150 mM NaCl, pH 7.5
[3] = target: T1, Gelatin-binding domain of human plasma …; assay: ITC; GBD in the cell (1 ml), Lig protein in the syringe (250 µl), 25 injections of 10 µl, 25°C, Tris buffer with 100 µM CaCl2; independent binding model
[4] = target: T1, Gelatin-binding domain of human plasma …; assay: ELISA
[5] = target: T1, Gelatin-binding domain of human plasma …; assay: ITC; GBD in the cell (1 ml), Lig protein in the syringe (250 µl), 25 injections of 10 µl, 25°C, Tris buffer with 100 µM CaCl2; independent binding model; remark: listed apart in the source

| Binder | koff [1] | kon [1] | stoichiometry N [2] | Kd [3] | dH [3] | stoichiometry N [3] | Kd [4] | Kd [5] | dH [5] | stoichiometry N [5] |
| --- | --- | --- | --- | --- | --- | --- | --- | --- | --- | --- |
| B1 | 0.0053 s⁻¹ | 510 M⁻¹ s⁻¹ | – | – | – | – | – | – | – | – |
| B2 | 0.00501 s⁻¹ | 750 M⁻¹ s⁻¹ | 0.95 GBD: Lig | 6750 ± 110 nM | -28.6 ± 5.14 kcal/mol | 1.01 ± 0.04 Lig: GBD | – | – | – | – |
| B3 | 0.00506 s⁻¹ | 1190 M⁻¹ s⁻¹ | – | – | – | – | – | – | – | – |
| B4 | – | – | 3.03 GBD: Lig | 49 ± 2 nM | -95.7 ± 3.85 kcal/mol | 0.33 ± 0.02 Lig: GBD | 49 ± 7 nM | – | – | – |
| B5 | 0.00923 s⁻¹ | 4830 M⁻¹ s⁻¹ | – | – | – | – | – | 1880 ± 90 nM | -29.2 ± 3.58 kcal/mol | 0.995 ± 0.01 |
| B6 | 0.00599 s⁻¹ | 1190 M⁻¹ s⁻¹ | – | – | – | – | – | – | – | – |
